US20260209386A1 (MYTHIC THERAPEUTICS, published 2026)
Numbering of substitutions follows the chain as printed.

T1: Human PTK7 Protein, His Tag, Acro Biosystems (human, UniProt Q13308 31-704)
T1 construct: Bought protein; also called CCK4; not shown: His tag
T1 sequence: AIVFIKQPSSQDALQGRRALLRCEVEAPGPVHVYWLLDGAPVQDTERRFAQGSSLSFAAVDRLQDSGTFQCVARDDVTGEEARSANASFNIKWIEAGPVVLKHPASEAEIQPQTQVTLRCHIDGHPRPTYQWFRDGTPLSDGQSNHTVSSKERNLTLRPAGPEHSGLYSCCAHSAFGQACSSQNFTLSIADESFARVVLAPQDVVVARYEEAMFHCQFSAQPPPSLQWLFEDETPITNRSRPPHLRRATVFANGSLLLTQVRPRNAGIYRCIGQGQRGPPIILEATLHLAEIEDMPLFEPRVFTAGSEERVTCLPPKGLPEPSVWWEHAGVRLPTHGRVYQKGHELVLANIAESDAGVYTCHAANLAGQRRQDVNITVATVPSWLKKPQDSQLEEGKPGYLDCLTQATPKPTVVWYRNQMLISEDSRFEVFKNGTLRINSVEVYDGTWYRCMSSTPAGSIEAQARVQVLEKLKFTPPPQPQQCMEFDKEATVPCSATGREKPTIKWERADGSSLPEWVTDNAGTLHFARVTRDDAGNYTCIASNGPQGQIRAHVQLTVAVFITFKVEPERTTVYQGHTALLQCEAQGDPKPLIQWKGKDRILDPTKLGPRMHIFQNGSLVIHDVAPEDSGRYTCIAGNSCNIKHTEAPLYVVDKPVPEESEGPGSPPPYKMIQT

T2: Human PTK7 Protein, His Tag (Acro Biosystems) (human, UniProt Q13308 31-704)
T2 construct: Bought recombinant protein; also called CCK4; tyrosine-protein kinase-like 7; not shown: His tag
T2 sequence: T1 sequence

B1: MYT11241 (antibody, V domains shown)
VH: EVQLVESGGGLVQPGGSLRLSCTASGIDLSSYVMGWVRQAPGKGLEWVGYIYGGGGTYYATWARGRFTISRDTSKNTVYLQMNSLRAEDTAVYFCARAAADFYFNLWGQGTLVTVSS
VL: EIVMTQSPSTLSASVGDRVIITCQASQSISSYLAWYQQKPGKAPKLLIYDISDLASGVPSRFSGSGSGAEFTLTISSLQPDDFATYYCQSYHWISNSGAAFGQGTKLTVL
notes: LC variant of MYT9460, sub at LCV pos 92 (L3 04)
B2: MYT11251 (antibody, V domains shown)
VH: B1 VH
VL: B1 VL with D50A, H92Y
notes: LC variant of MYT9460, Ala sub at LCV pos 50 (L2 01)
B3: MYT11242 (antibody, V domains shown)
VH: B1 VH
VL: B1 VL with H92Y, W93H
notes: LC variant of MYT9460, sub at LCV pos 93 (L3 05)
B4: MYT11252 (antibody, V domains shown)
VH: B1 VH
VL: B1 VL with D53A, H92Y
notes: LC variant of MYT9460, Ala sub at LCV pos 53 (L2 04)
B5: MYT11341 (antibody, V domains shown)
VH: EVQLVESGGGLVQPGGSLRLSCTASGIHLSNYAVIWVRQAPGKGLEWVGIIYTYDTTYYANWAKGRFTISRDTSKNTVYLQMNSLRAEDTAVYFCARSFSDISDLIKLWGQGTLVTVSS
VL: EIVMTQSPSTLSASVGDRVIITCQASQSLYNNKDLAWYQQKPGKAPKLLIYEASKLASGVPSRFSGSGSGAEFTLTISSLQPDDFATYYCLGEFSCGSGDCLAFGQGTKLTVL
notes: MYT9797 HC variant; captured via anti-human Fc
B6: MYT11345 (antibody, V domains shown)
VH: B5 VH with H28D, Y32H
VL: B5 VL
notes: as for B5
B7: MYT11385 (antibody, V domains shown)
VH: B5 VH with H28D
VL: B5 VL with S26H
notes: MYT9797 LC variant; captured via anti-human Fc
B8: MYT11403 (antibody, V domains shown)
VH: B5 VH with H28D
VL: B5 VL with L91H
notes: as for B7
B9: MYT11402 (antibody, V domains shown)
VH: B5 VH with H28D
VL: B5 VL with S58H
notes: as for B7
B10: MYT11358 (antibody, V domains shown)
VH: B5 VH with H28D, Y59H
VL: B5 VL
notes: as for B5
B11: MYT11362 (antibody, V domains shown)
VH: B5 VH with H28D, A63H
VL: B5 VL
notes: as for B5
B12: MYT11344 (antibody, V domains shown)
VH: B5 VH with H28D, N31H
VL: B5 VL
notes: as for B5
B13: MYT11375 (antibody, V domains shown)
VH: B5 VH with H28D, I106H
VL: B5 VL
notes: as for B5
B14: MYT11359 (antibody, V domains shown)
VH: B5 VH with H28D, A60H
VL: B5 VL
notes: as for B5
B15: MYT11340 (antibody, V domains shown)
VH: B5 VH with I27H, H28D
VL: B5 VL
notes: as for B5
B16: MYT11387 (antibody, V domains shown)
VH: B5 VH with H28D
VL: B5 VL with S28H
notes: as for B7
B17: MYT11368 (antibody, V domains shown)
VH: B5 VH with H28D, F99H
VL: B5 VL
notes: as for B5
B18: MYT11383 (antibody, V domains shown)
VH: B5 VH with H28D
VL: B5 VL with Q24H
notes: as for B7
B19: MYT11386 (antibody, V domains shown)
VH: B5 VH with H28D
VL: B5 VL with Q27H
notes: as for B7
B20: MYT11364 (antibody, V domains shown)
VH: B5 VH with H28D, G65H
VL: B5 VL
notes: as for B5
B21: MYT11377 (antibody, V domains shown)
VH: B5 VH with H28D, L108H
VL: B5 VL
notes: as for B5
B22: MYT11342 (antibody, V domains shown)
VH: B5 VH with H28D, L29H
VL: B5 VL
notes: as for B5
B23: MYT11400 (antibody, V domains shown)
VH: B5 VH with H28D
VL: B5 VL with L56H
notes: as for B7
B24: MYT11360 (antibody, V domains shown)
VH: B5 VH with H28D, N61H
VL: B5 VL
notes: as for B5
B25: MYT11350 (antibody, V domains shown)
VH: B5 VH with H28D, I51H
VL: B5 VL
notes: as for B5
B26: MYT11348 (antibody, V domains shown)
VH: B5 VH with H28D, I35H
VL: B5 VL
notes: as for B5
B27: MYT11347 (antibody, V domains shown)
VH: B5 VH with H28D, V34H
VL: B5 VL
notes: as for B5
B28: MYT11366 (antibody, V domains shown)
VH: B5 VH with H28D, R97H
VL: B5 VL
notes: as for B5
B29: MYT11361 (antibody, V domains shown)
VH: B5 VH with H28D, W62H
VL: B5 VL
notes: as for B5
B30: MYT11343 (antibody, V domains shown)
VH: B5 VH with H28D, S30H
VL: B5 VL
notes: as for B5
B31: MYT11408 (antibody, V domains shown)
VH: B5 VH with H28D
VL: B5 VL with G97H
notes: as for B7
B32: MYT11339 (antibody, V domains shown)
VH: B5 VH with G26H, H28D
VL: B5 VL
notes: as for B5
B33: MYT11401 (antibody, V domains shown)
VH: B5 VH with H28D
VL: B5 VL with A57H
notes: as for B7
B34: MYT11399 (antibody, V domains shown)
VH: B5 VH with H28D
VL: B5 VL with K55H
notes: as for B7
B35: MYT11379 (antibody, V domains shown)
VH: B5 VH with H28A
VL: B5 VL
notes: MYT9797 HC alanine variant; captured via anti-human Fc
B36: MYT11391 (antibody, V domains shown)
VH: B5 VH with H28D
VL: B5 VL with N32H
notes: as for B7

biological target: T1, Human PTK7 Protein, His Tag, Acro …; assay: BLI (Octet), antibody on anti-human Fc sensor, 50 nM PTK7, dissociation at pH 7.4 or 5.4; 2 = substantially similar binding relative to parent

Binding result, binds:
B1, B2, B3, B4

biological target: T2, Human PTK7 Protein, His Tag (Acro …); assay: BLI, antibody on anti-human Fc sensor, 50 nM PTK7 at pH 7.4, dissociation at pH 7.4 or 5.4; 2 = substantially similar binding relative to parent

Binding result, binds:
B5, B6, B7, B8, B9, B10, B11, B12, B13, B14, B15, B16, B17, B18, B19, B20, B21, B22, B23, B24, B25, B26, B27, B28, B29, B30, B31, B32, B33, B34, B35, B36
